The record followed here is US20220144932A1.

Assay [1] deals with Recombinant FAM19A5 rabbit Fc fusion protein (human; rabbit) (UniProt Q7Z5A7). Kind of assay: flow cytometry, blocking: FAM19A5-rFc (1 µM) with scFv-Cκ (5 µM) on mouse primary glial cells; blocked: binding of FAM19A5-rFc to the cells.
For assay [2] the target is unchanged. Kind of assay: flow cytometry, blocking: FAM19A5-rFc (1 µM) with scFv-Cκ (5 µM) on human glioblastoma cell line U87MG; blocked: binding of FAM19A5-rFc to the cells. In general terms: Flow cytometry measures light scatter and fluorescence of single cells or particles in a stream.

B1: 2-13 anti-FAM19A5 scFv human Cκ fusion protein (scFv, not shown: a dimerising Fc or GST)
scFv: ALTQPSSVSANPGETVKITCSGGSYSYGWFQQKSPGSALVTVIYWDDERPSDIPSRFSGALSGSTNTLTITGVQADDEAVYFCGTEDISGTAGVFGAGTTLTVLGQSSRSSGGGGSSGGGGSAVTLDESGGGLQTPGGALSLVCKASGFTFSSHGMFWVRQTPGKGLEYVAEITNDGSGTNYGSAVKGRATISRDNGQSTVRLQLNNLRAEDTGTYFCARSTYECPGGFSCWGDTGQIDAWGHGTEVIVSS
With B1, the percent reduction of MFI in assay [1] was 88.9%; in assay [2], 69.6%.
